US6942981
Ends that are not written are not given here. * marks the point of attachment. Biotin = O=C1N[C@H]2[C@H](CS[C@H]2CCCCC(=O)*)N1

T1: GST-NeDLG PDZ domains 1-2 fusion protein (Mus musculus (Mouse), UniProt P70175 147-332)
T1 construct: also called NeDLG1; not shown: glutathione S-transferase (GST) encoded by pGEX-3X
T1 chain: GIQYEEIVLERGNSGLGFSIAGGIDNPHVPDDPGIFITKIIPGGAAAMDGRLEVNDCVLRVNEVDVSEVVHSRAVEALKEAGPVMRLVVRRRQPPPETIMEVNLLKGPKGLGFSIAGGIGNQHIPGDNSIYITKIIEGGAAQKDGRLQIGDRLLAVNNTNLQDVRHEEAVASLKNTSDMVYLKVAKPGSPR

T2: GST-41.8 kD (hypothetical 41.8 kD protein) PDZ domain fusion protein (Mus musculus (Mouse), UniProt Q9EQZ7 682-763)
T2 construct: not shown: glutathione S-transferase (GST) encoded by pGEX-3X
T2 sequence: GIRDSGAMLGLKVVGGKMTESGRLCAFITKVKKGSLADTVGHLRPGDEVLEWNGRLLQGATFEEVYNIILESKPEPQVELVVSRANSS

T3: GST-MPP1 PDZ domain fusion protein (Homo sapiens (Human), UniProt Q00013 67-152)
T3 construct: also called 55 Kd erythrocyte membrane protein; not shown: glutathione S-transferase (GST) encoded by pGEX-3X
T3 sequence: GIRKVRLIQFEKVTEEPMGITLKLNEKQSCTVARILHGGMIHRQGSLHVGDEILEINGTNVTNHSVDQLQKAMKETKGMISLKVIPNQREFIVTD

T4: GST-MPP2 PDZ domain fusion protein
T4 construct: also called maguk p55 subfamily member 2 (DLG2); MMP2; not shown: glutathione S-transferase (GST) encoded by pGEX-3X
T4 chain: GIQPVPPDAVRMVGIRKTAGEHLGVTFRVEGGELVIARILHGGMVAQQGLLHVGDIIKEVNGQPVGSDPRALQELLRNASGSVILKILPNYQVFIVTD

T5: GST-DVL1 PDZ domain fusion protein (human)
T5 construct: also called human dishevelled segment polarity protein homolog; not shown: glutathione S-transferase (GST) encoded by pGEX-3X
T5 chain: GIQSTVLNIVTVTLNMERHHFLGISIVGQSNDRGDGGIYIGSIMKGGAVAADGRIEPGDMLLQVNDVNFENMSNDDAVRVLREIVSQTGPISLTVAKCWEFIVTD

T6: GST-MINT3 PDZ domain fusion protein (human)
T6 construct: also called human MINT3; not shown: glutathione S-transferase (GST) encoded by pGEX-3X
T6 chain: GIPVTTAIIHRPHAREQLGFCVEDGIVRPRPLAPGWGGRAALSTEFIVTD

T7: GST-LIMK2 PDZ domain fusion protein (human, UniProt P53671 147-237)
T7 construct: also called human LIM domain kinase 2; not shown: glutathione S-transferase (GST) encoded by pGEX-3X
T7 sequence: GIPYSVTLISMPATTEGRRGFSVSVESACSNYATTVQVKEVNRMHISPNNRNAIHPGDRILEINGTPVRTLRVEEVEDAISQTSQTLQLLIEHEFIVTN

T8: GST-TAX2 PDZ domain fusion protein (human, UniProt O14908 129-216)
T8 construct: not shown: glutathione S-transferase (GST) encoded by pGEX-3X
T8 chain: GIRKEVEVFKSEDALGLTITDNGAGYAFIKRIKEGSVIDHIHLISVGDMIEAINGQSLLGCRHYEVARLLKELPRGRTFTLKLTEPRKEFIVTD

T9: GST-SYN1a (alpha1-syntrophin) PDZ domain fusion protein (Homo sapiens (Human), UniProt Q13424 84-179)
T9 construct: also called SYN 1 α; not shown: glutathione S-transferase (GST) encoded by pGEX-3X
T9 sequence: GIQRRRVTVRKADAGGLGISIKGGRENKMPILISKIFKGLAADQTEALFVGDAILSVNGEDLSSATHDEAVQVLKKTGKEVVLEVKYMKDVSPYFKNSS


Molecular target: T1, GST-NeDLG PDZ domains 1-2 fusion protein
Experiment: A and G assays

Binder	binding result
Biotin-KDSRPSFVGSSSGHTSTTL [CDW128B (IL8RB) C-terminal peptide AA29.2L]	binds

Molecular target: T1, GST-NeDLG PDZ domains 1-2 fusion protein
Experiment: G assay titration of biotinylated peptide on immobilized GST-PDZ, saturation fit (apparent affinity)
From the text: FIGS. 2A and 2B show the Apparent Affinity Determination for PDZ-Ligand Interactions. […] The binding to GST alone (<0.2 OD units) was subtracted from the binding to the fusion proteins to obtain the signal at each peptide concentration.

Binder	Kd [µM]
Biotin-ISGTPTSTMVHGMTSSSSVV [CLASP-2 C-terminal peptide AA2L]	7.5
Biotin-KDITSDSENSNFRNEIQSLV [CD95 (Apo-1/Fas) C-terminal peptide AA13L]	54

molecular target: T2, GST-41.8 kD (hypothetical 41.8 kD …); experiment: A assay

Binder	binding result
Biotin-ISGTPTSTMVHGMTSSSSVV [CLASP-2 C-terminal peptide AA2L]	binds

Molecular target: T1, GST-NeDLG PDZ domains 1-2 fusion protein
Experiment: A assay

Binder	binding result
Biotin-ARKANMKGSYSLVEAQKSKV [VCAM1 C-terminal peptide AA17L]	binds
Biotin-VTSPNKHLGLVTPHKTELV [CD83 C-terminal peptide AA47L]	binds
Biotin-ARHRVTSYTSSSVNVSSNL [CDW128A (IL8RA) C-terminal peptide AA29.1L]	binds

molecular target: T3, GST-MPP1 PDZ domain fusion protein; experiment: A assay

Binder	binding result
Biotin-ARKANMKGSYSLVEAQKSKV [VCAM1 C-terminal peptide AA17L]	binds

Molecular target: T4, GST-MPP2 PDZ domain fusion protein
Experiment: A/G assays

Binder	binding result
Biotin-ISGTPTSTMVHGMTSSSSVV [CLASP-2 C-terminal peptide AA2L]	no binding
Biotin-ARKANMKGSYSLVEAQKSKV [VCAM1 C-terminal peptide AA17L]	no binding
Biotin-VTSPNKHLGLVTPHKTELV [CD83 C-terminal peptide AA47L]	no binding
Biotin-KDITSDSENSNFRNEIQSLV [CD95 (Apo-1/Fas) C-terminal peptide AA13L]	no binding
Biotin-ARHRVTSYTSSSVNVSSNL [CDW128A (IL8RA) C-terminal peptide AA29.1L]	no binding
Biotin-KDSRPSFVGSSSGHTSTTL [CDW128B (IL8RB) C-terminal peptide AA29.2L]	no binding
Biotin-AWDDSARAAGGQGLHVTAL [LPAP C-terminal peptide AA30L]	no binding

Molecular target: T5, GST-DVL1 PDZ domain fusion protein
Experiment: A/G assays

Binder	binding result
Biotin-ISGTPTSTMVHGMTSSSSVV [CLASP-2 C-terminal peptide AA2L]	no binding
Biotin-ARKANMKGSYSLVEAQKSKV [VCAM1 C-terminal peptide AA17L]	no binding
Biotin-VTSPNKHLGLVTPHKTELV [CD83 C-terminal peptide AA47L]	no binding
Biotin-KDITSDSENSNFRNEIQSLV [CD95 (Apo-1/Fas) C-terminal peptide AA13L]	no binding
Biotin-ARHRVTSYTSSSVNVSSNL [CDW128A (IL8RA) C-terminal peptide AA29.1L]	no binding
Biotin-KDSRPSFVGSSSGHTSTTL [CDW128B (IL8RB) C-terminal peptide AA29.2L]	no binding
Biotin-AWDDSARAAGGQGLHVTAL [LPAP C-terminal peptide AA30L]	no binding

Molecular target: T6, GST-MINT3 PDZ domain fusion protein
Experiment: A/G assays

Binder	binding result
Biotin-ISGTPTSTMVHGMTSSSSVV [CLASP-2 C-terminal peptide AA2L]	no binding
Biotin-ARKANMKGSYSLVEAQKSKV [VCAM1 C-terminal peptide AA17L]	no binding
Biotin-VTSPNKHLGLVTPHKTELV [CD83 C-terminal peptide AA47L]	no binding
Biotin-KDITSDSENSNFRNEIQSLV [CD95 (Apo-1/Fas) C-terminal peptide AA13L]	no binding
Biotin-ARHRVTSYTSSSVNVSSNL [CDW128A (IL8RA) C-terminal peptide AA29.1L]	no binding
Biotin-KDSRPSFVGSSSGHTSTTL [CDW128B (IL8RB) C-terminal peptide AA29.2L]	no binding
Biotin-AWDDSARAAGGQGLHVTAL [LPAP C-terminal peptide AA30L]	no binding

molecular target: T7, GST-LIMK2 PDZ domain fusion protein; experiment: A/G assays

Binder	binding result
Biotin-ISGTPTSTMVHGMTSSSSVV [CLASP-2 C-terminal peptide AA2L]	no binding
Biotin-ARKANMKGSYSLVEAQKSKV [VCAM1 C-terminal peptide AA17L]	no binding
Biotin-VTSPNKHLGLVTPHKTELV [CD83 C-terminal peptide AA47L]	no binding
Biotin-KDITSDSENSNFRNEIQSLV [CD95 (Apo-1/Fas) C-terminal peptide AA13L]	no binding
Biotin-ARHRVTSYTSSSVNVSSNL [CDW128A (IL8RA) C-terminal peptide AA29.1L]	no binding
Biotin-KDSRPSFVGSSSGHTSTTL [CDW128B (IL8RB) C-terminal peptide AA29.2L]	no binding
Biotin-AWDDSARAAGGQGLHVTAL [LPAP C-terminal peptide AA30L]	no binding

Molecular target: T1, GST-NeDLG PDZ domains 1-2 fusion protein
Experiment: A/G assays

Binder	binding result
Biotin-AWDDSARAAGGQGLHVTAL [LPAP C-terminal peptide AA30L]	no binding

molecular target: T10, GST-NOS1 PDZ domain fusion protein (human, UniProt P29475 11-101); experiment: A/G assays
T10 construct: also called human neuronal nitric oxide synthase; not shown: glutathione S-transferase (GST) encoded by pGEX-3X
T10 sequence (P29475 other isoform, or with tags, fused parts or gaps): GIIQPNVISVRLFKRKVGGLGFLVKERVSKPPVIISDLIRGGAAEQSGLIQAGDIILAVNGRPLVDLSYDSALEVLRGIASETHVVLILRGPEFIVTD

Binder	binding result
Biotin-AWDDSARAAGGQGLHVTAL [LPAP C-terminal peptide AA30L]	no binding

molecular target: T11, GST-KIAA0316 PDZ domain fusion protein (Homo sapiens (Human), UniProt Q14CM0 72-159); experiment: A/G assays
T11 construct: also called K316; not shown: glutathione S-transferase (GST) encoded by pGEX-3X
T11 sequence (Q14CM0 other isoform, or with tags, fused parts or gaps): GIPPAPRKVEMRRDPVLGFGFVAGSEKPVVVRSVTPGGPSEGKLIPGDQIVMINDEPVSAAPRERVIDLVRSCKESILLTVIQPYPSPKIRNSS

Binder	binding result
Biotin-AWDDSARAAGGQGLHVTAL [LPAP C-terminal peptide AA30L]	no binding

Molecular target: T8, GST-TAX2 PDZ domain fusion protein
Experiment: A/G assays

Binder	binding result
Biotin-ISGTPTSTMVHGMTSSSSVV [CLASP-2 C-terminal peptide AA2L]	no binding
Biotin-ARKANMKGSYSLVEAQKSKV [VCAM1 C-terminal peptide AA17L]	no binding
Biotin-VTSPNKHLGLVTPHKTELV [CD83 C-terminal peptide AA47L]	no binding
Biotin-KDITSDSENSNFRNEIQSLV [CD95 (Apo-1/Fas) C-terminal peptide AA13L]	no binding
Biotin-ARHRVTSYTSSSVNVSSNL [CDW128A (IL8RA) C-terminal peptide AA29.1L]	no binding
Biotin-KDSRPSFVGSSSGHTSTTL [CDW128B (IL8RB) C-terminal peptide AA29.2L]	no binding
Biotin-AWDDSARAAGGQGLHVTAL [LPAP C-terminal peptide AA30L]	no binding

molecular target: T9, GST-SYN1a (alpha1-syntrophin) PDZ …; experiment: A/G assays

Binder	binding result
Biotin-ISGTPTSTMVHGMTSSSSVV [CLASP-2 C-terminal peptide AA2L]	no binding
Biotin-ARKANMKGSYSLVEAQKSKV [VCAM1 C-terminal peptide AA17L]	no binding
Biotin-VTSPNKHLGLVTPHKTELV [CD83 C-terminal peptide AA47L]	no binding
Biotin-KDITSDSENSNFRNEIQSLV [CD95 (Apo-1/Fas) C-terminal peptide AA13L]	no binding
Biotin-ARHRVTSYTSSSVNVSSNL [CDW128A (IL8RA) C-terminal peptide AA29.1L]	no binding
Biotin-KDSRPSFVGSSSGHTSTTL [CDW128B (IL8RB) C-terminal peptide AA29.2L]	no binding
Biotin-AWDDSARAAGGQGLHVTAL [LPAP C-terminal peptide AA30L]	no binding
